This is an account of results in patent publication EP4673749A1 (dated 2026).

For test [1], the target named is T1, Pro-C3 target sequence CPTGPQNYSP (C-terminal neo-epitope of PIIINP, residues 144-153 of the alpha1 chain) (human).
T1 construct: Synthetic peptide with free C-terminus (-COOH)
T1 peptide: CPTGPQNYSP
The test can be described thus: antibody characterization with peptides (ELISA, as previously described). A general note: In an ELISA, binding on a coated surface is turned into a signal by an enzyme label.

The target of test [2] is T2, elongated peptide CPTGPQNYSPQ (human).
T2 construct: the peptide tested is printed with Pro at that position
T2 peptide: CPTGPQNYSPQ
The description is as above.

The target of test [3] is T3, non-sense peptide GSPGKDGVRG
T3 construct: Control peptide
T3 peptide: GSPGKDGVRG
The test is described as above.

Test [4] has as its target T4, PRO-C6 sequence KPGVISVMGT (last 10 amino acids of the type VI collagen alpha3 chain, 3168-3177).
T4 construct: also called selection peptide; immunogenic peptide
T4 peptide: KPGVISVMGT
The experiment in a line: hybridoma clone screening with peptides.

Test [5] has as its target T5, elongated peptide KPGVISVMGTA
T5 construct: Synthetic peptide, Chinese Peptide Company
T5 peptide: KPGVISVMGTA
The test can be described thus: hybridoma clone screening with peptides.

The target in test [6] is T6, truncated peptide KPGVISVMG
T6 construct: Synthetic peptide, American Peptide Company
T6 peptide: KPGVISVMG
The test can be described thus: hybridoma clone screening with peptides.

B1: Pro-C3 monoclonal antibody (monoclonal antibody NB61N-62) (antibody, mouse IgG2a, kappa, V domains shown)
VH: EVQLQQSGPEVLKPGASVKMSCKASGYTFINYVIHWLKQKAGQGPEWIGYMNPYNDVPKNNAKFRGKARLTSDRSSTTAYMELNSLTSEDSAVYYCARGGFFGPLSYWGQGTLVTVSA
VL: DVLMTQTPLSLSVSLGDQASISCRSSQNIVYSNGDTYFEWYLQKPGQSPKLLIYKVSQRFSGVPDRFSGSGSGTDFTLKISRVETEDLGVYYCFQGAHDPPAFGGGTKLELKR
B1: the binding result in test [1] is “binds”; in test [2], “no binding”; in test [3] it was “no binding”.

B2: PRO-C6 monoclonal antibody 10A3 (antibody, mouse IgG1, kappa, V domains shown)
VH: EVQLQQSGPVMVKPGTSVKTSCKASGYTFTDFNMNWVKQSHGKSLEWIGAINPHNGATSYNQKFSGKATLTVDKSSSTAYMELNSLTSDDSAVYYCARWGNGKNSWGQGTTLTVSS
VL: DVVMTQTPLSLPVNLGDQASISCRSSQRIVHSNGITFLEWYLQKPGQSPKLLIYRVSNRFSGVPDRFSGSGSGTDFTLKISRVEAEDLGLYYCFQGSHVPLTFGAGTRLELKR
notes: Mouse IgG1 / kappa; also called monoclonal antibody specific for PRO-C6
Turning to B2, the binding result in test [4] was “binds”; in test [5] it was “no binding”; in test [6], “no binding”.
